# Test results: article PMC11021501, “Insights into the inhibition of protospacer integration via direct interaction between Cas2 and AcrVA5” (Nature Communications, 2024)
# B1: AcrVA5-L5A (natural protein)
# chain: MKIEASGGYICYSIEEDEVTIDMVEVTTKRQGIGSQLIDMVKDVAREVGLPIGLYAYPQDDSISQEDLIEFYFSNDFEYDPDDVDGRLMRWS
# B2: Moraxella bovoculi AcrVA5 (natural protein)
# chain: MKIELSGGYICYSIEEDEVTIDMVEVTTKRQGIGSQLIDMVKDVAREVGLPIGLYAYPQDDSISQEDLIEFYFSNDFEYDPDDVDGRLMRWS
# modifications: C-terminal His-tag left out; the vector-derived PLGS of 6IUF is dropped, so entity number = AcrVA5 number + 4
# B3: Treponema denticola Cas2 (natural protein)
# chain: MRVIVFFDLPVITPENRHNYSVFRKYLIKSGFIMQQKSVYSKLVLNLTNRDSIVKSIEKNKPPEGLVEVLTVTEKQYAKMEIIIGESKTEYLNTDERLVVL
# notes: Cas2 of Treponema denticola, type II-A CRISPR-Cas system; gene amplified and cloned into a modified pET32a vector with a precession enzyme cleavage site; A GST-tagged Cas2 (pGEX-6p-1, GST removed) was also made; Dimer by the crystal structure; also called Td-Cas2; WT-Cas2; not shown: Trx, N-terminal, cleaved
# What was measured:
# Treponema denticola Cas2 [1] = target: T1, Treponema denticola Cas2 (Treponema denticola, UniProt Q73QW4 1-101); assay: ITC
# T1 chain: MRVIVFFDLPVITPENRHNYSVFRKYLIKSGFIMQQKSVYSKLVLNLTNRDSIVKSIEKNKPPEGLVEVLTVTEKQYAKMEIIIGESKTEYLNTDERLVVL
# [2] = target: Treponema denticola Cas2 (Treponema denticola) (UniProt Q73QW4); assay: ITC; AcrVA5 (400 µM) injected into 50 µM Cas2 in the sample cell, 25 °C, 20 mM Tris pH 7.4, 200 mM NaCl; also AcrVA5 mutants and AcrVA5 peptides with Cas2
# Treponema denticola Cas2 [3] = target: B3; assay: as above; conditions: both partners purified
# [4] = target: the molecule itself; assay: crystal structure; Cas2 with peptide at molar ratio 1:1.2, hanging drop, 15% PEG3350, 10% glycerol, 0.1 M Tris pH 6.4; 2.0 Å
binder,measurement,setting,value
B1,Kd,Treponema denticola Cas2 [1],1060 nM
same,Kd,[2],1300 nM
B2,Ka,Treponema denticola Cas2 [3],939000 M⁻¹
same,Kd,Treponema denticola Cas2 [3],1100 nM
same,dH,Treponema denticola Cas2 [3],4230 ± 165 cal/mol
same,stoichiometry N,Treponema denticola Cas2 [3],0.596 ± 0.0158
B3,stoichiometry N,[4],2
